Test [1] has as its target T1, Biotinylated CD3-specific binding domain SEQ ID NO: 13 (biotinylated (site not stated)).
T1 construct: Ligand on the neutravidin (NLC) SPR chip; The same domain is the CD3-specific domain of TCE #1
T1 chain: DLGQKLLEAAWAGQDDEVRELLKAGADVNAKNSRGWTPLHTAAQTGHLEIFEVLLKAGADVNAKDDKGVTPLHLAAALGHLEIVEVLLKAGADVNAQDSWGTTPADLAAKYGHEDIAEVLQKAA
In words: SPR (comparable assays).

The target in test [2] is T2, Biotinylated CD3-specific binding domain SEQ ID NO: 14 (biotinylated (site not stated)).
T2 construct: Ligand on the neutravidin (NLC) SPR chip
T2 chain: T1 chain with D65N, G68R, Q97R, E114Q
Briefly: SPR (comparable assays).

Test [3] concerns the target T3, TCE #2.
T3 construct: also called α-HSA×α-CD123×α-CD33×α-CD3 T-cell engager; TCE (with a half-life extending moiety)
T3 chain: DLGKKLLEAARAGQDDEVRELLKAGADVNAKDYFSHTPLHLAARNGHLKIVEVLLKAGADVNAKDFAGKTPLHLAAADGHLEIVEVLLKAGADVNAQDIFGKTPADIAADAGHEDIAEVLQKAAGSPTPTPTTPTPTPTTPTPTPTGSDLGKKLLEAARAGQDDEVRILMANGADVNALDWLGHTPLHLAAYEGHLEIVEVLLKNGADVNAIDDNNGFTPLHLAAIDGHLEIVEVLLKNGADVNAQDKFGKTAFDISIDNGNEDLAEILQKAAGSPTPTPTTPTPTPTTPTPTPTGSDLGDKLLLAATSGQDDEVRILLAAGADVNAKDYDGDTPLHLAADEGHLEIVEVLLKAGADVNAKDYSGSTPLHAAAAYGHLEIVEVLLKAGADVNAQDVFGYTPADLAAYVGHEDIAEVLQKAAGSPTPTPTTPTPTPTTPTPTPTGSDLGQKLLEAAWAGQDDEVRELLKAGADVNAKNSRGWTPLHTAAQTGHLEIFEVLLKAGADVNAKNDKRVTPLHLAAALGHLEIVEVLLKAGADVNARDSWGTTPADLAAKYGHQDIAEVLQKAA
Briefly: not stated (affinity to the CD3 binding domain of TCE #2); Binder #10, 1 pM or lower.

Test [4] addresses T1, Biotinylated CD3-specific binding …. In words: calculated from SPR koff (ln2/koff). The procedure: (§1) Further SPR data were generated for Binders #1 to #9 (as listed in Example 1 above), binding to biotinylated CD3-specific binding domains having SEQ ID NOs: 13 and 14, respectively, on the chip. […] The blocking half-life (T_{1/2}) was then calculated.
In test [5] the target is T2, Biotinylated CD3-specific binding …. In words: calculated from SPR koff (ln2/koff). The procedure: as §1
The target in test [6] is T3, TCE #2. In words: not stated (affinity to the CD3 effector moiety of TCE #2).
The target in test [7] is T1, Biotinylated CD3-specific binding …. Briefly: SPR (ProteOn XPR36), 33 C, multi-trace; biotinylated ligand on chip, binder as analyte. As to the method:
as §1

The target of test [8] is T2, Biotinylated CD3-specific binding …. The test is described as above. As to the method: as §1

Substitutions are numbered along the chain they refer to. A value given as a limit tells only on which side of the number the result lay.

B1: Binder #10 (designed binder)
chain: MRGSHHHHHHGSDLGKKLLQAARAGQLDEVRELLKAGADVNAKDHYGWTPLHLAASEGHLEIVEVLLKAGADVNAKDWIGWTPLHLAASFGHLEIVEVLLKAGADVNAKDVSGKTPLHIAARQGHLEIVEVLLKAGADVNAQDKSGKTPADLAARAGHQDIAEVLQKAA
Take B1: the binding result in test [1] and in test [2] was “binds” throughout. This molecule also had a Kd in test [3] of at most 0.001 nM.

B2: Binder #1 (designed binder)
chain: MRGSHHHHHHGSDLGKKLLQAARAGQLDEVRELLKAGADVNAKDFKGLTPLHLAAAHGHLEIVEVLLKAGADVNAKDVYGWTPLHIAAASGHLEIVEVLLKAGADVNAKDWLGITPLHLAASHGHLEIVEVLLKAGADVNAQDKSGKTPADLAARAGHQDIAEVLQKAA
notes: expressed in E. coli and purified by its His-tag
As for B2, the “Blocking T1/2” value in test [4] is 3.1 h; in test [5], 7.1 h. In addition, the figures for the Kd in test [6], in test [7] and in test [8] were around 0.04 nM, 0.04 nM and 0.034 nM, respectively. Moreover, the koff in test [7] amounted to 6.2e-05 s⁻¹; in test [8], 2.7e-05 s⁻¹. Moreover, the on-rate constant (kon) in test [7] was determined as 1.54e+06 M⁻¹ s⁻¹; in test [8] it was 790000 M⁻¹ s⁻¹.

One may read the Kd as the equilibrium constant for the complex coming apart. A high value points to a looser complex. What is called koff is the first-order rate constant of dissociation. The term kon denotes the rate constant with which the complex forms. Read a high kon as fast association.
